The text below walks through data of article PMC2855102.

Assay [1] deals with actin (thin filament, F-actin) of bovine myocardium (bovine (endogenous in left ventricle and left atrium)) (UniProt Q3ZC07).
The target is the same in assay [2]. The source holds these as a separate data set.
Assay [3] has the same target. The source holds these as a separate data set.
Assay [4] addresses actin (thin filament, F-actin) of mouse left ventricular myocardium (mouse (endogenous in C57/BL6 left ventricle)) (UniProt P68033).
The target is the same in assay [5]. This is another data set of the same source.
Assay [6] has the same target. The source holds these as a separate data set.
For assay [7] the target is unchanged. The source holds these as a separate data set.

In the case of “titin of bovine left ventricular myocardium, a mixture of the N2B and N2BA isoforms (natural protein)”, the reduction of total passive tension during stretch of skinned BLV after thin filament (actin) extraction with gelsolin, at SL 2.25 μm in assay [1] was found to be 17%. Further, the decrease of hysteresis (area of the force-length loop of stretch-release cycles) of skinned BLV after actin extraction with gelsolin, at SL 2.25 μm in assay [2] was 52%. The reduction of titin-based passive tension of skinned BLV after thin filament (actin) extraction with gelsolin, at SL 2.25 μm (calculated from total tension with titin's fractional contribution) in assay [3] was 20%.

For the substance “titin (connectin) of mouse left ventricular myocardium, predominately the N2B isoform (natural protein)”, in assay [4], the decrease of passive stiffness/tension during stretch of skinned MLV with both S100A1 (1 μg/μL, Sigma) and calcium (pCa 6.8), relative to pCa 9.0; stretch speeds 0.1 and 2.0 length/sec is less than 20%. Also, in assay [5], the reduction of total passive tension during stretch of skinned MLV after thin filament (actin) extraction with gelsolin, at SL 2.25 μm turned out to be 22%. The decrease of hysteresis (area of the force-length loop of stretch-release cycles) of skinned MLV after actin extraction with gelsolin, at SL 2.25 μm in assay [6] was 33%. Besides, in assay [7], the reduction of titin-based passive tension of skinned MLV after thin filament (actin) extraction with gelsolin, at SL 2.25 μm (calculated from total tension with titin's fractional contribution) is 44%.

In turn, “titin of bovine left atrial myocardium, mainly the N2BA isoform (natural protein)” gave a reduction of total passive tension during stretch of skinned BLA after thin filament (actin) extraction with gelsolin, at SL 2.25 μm in assay [1] of 10%. This substance also displayed a decrease of hysteresis (area of the force-length loop of stretch-release cycles) of skinned BLA after actin extraction with gelsolin, at SL 2.25 μm in assay [2] of 35%. Besides, in assay [3], the reduction of titin-based passive tension of skinned BLA after thin filament (actin) extraction with gelsolin, at SL 2.25 μm (calculated from total tension with titin's fractional contribution) was 12%.
